Biological target: OX40 (receptor of OX40L) on tumor-infiltrating T cells of C57BL/6J mice (mouse) (UniProt P47741)
Assay: cell-based or functional assay

Sequence of UniProt P47741 (P47741 20-272): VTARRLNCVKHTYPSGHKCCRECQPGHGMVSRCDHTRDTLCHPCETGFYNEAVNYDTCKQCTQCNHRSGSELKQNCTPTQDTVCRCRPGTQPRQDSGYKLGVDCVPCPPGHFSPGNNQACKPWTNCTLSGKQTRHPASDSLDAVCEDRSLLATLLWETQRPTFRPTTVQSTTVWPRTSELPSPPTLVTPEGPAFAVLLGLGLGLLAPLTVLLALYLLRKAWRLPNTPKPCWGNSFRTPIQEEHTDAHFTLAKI

murine OX40L (muOX40L) polypeptide (ligand)
percentages of OX40+FoxP3+CD4+ cells in injected tumors of WT mice (FACS): 19%

Reference: patent US20250179524A1
